Among the data in US20140223606, “COMPOSITIONS AND METHODS COMPRISING SEQUENCES HAVING MEGANUCLEASE ACTIVITY” (PIONEER HI BRED INTERNATIONAL INC, published 2014) are activity values, retold here.

Numbering of substitutions follows the chain as printed.

One series has as its target T1, MHP14(14) (artificial).
T1 chain: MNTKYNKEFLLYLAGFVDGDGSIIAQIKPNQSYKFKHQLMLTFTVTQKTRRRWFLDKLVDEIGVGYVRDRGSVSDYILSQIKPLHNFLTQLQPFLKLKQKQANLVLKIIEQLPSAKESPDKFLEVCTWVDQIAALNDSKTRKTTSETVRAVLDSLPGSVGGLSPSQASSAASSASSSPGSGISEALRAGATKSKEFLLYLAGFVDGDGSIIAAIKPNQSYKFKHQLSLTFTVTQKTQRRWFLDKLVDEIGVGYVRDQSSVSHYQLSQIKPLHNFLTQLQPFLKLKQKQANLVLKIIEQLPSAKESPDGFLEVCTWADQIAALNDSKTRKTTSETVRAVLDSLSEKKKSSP
The series can be described thus: cell_activity; yeast 37 C; 28 C: 1. Particulars: tags: NLS, 6xHis. The protocol: A 3 mL culture of selective media (MP Biomedical) was inoculated with a single colony of the yeast screening strain and grown at 30° C. overnight. On the following day, a 50 ml YPD culture (MP Biomedical) was started with 2 ml of the overnight culture and grown at 30° C. overnight. On the following day, the cells were harvested by centrifugation at 4000 rpm. The cells were resuspended in 100 ml ice cold water and centrifuged again. The cells were then washed in 1.2 M sorbitol, followed by treatment with 2 ml of 10 mM Tris pH 8.0, 1 mM EDTA, 100 mM Lithium acetate, 10 mM DTT, 0.6M sorbitol for 30 minutes at 30° C. with shaking. The cells were recovered by centrifugation, washed in 40 ml 1.2M sorbitol and finally resuspended in 250 microliters of 1.2M sorbitol. 50 microliter aliquots were transferred to test tubes on ice. Up to 5 microliters of DNA (100-500 nanograms) were added. The suspension was transferred to a 0.2 cm electroporation cuvette, on ice. Electroporation was performed with a pulse charge at 1.5 kV, 200 ohms, 25 microF (pulse time of 5 milliseconds). 1 mL YPD media (MP Biomedical) was added and the cells were allowed to recover at 30° C. for 1-2 hr. The cells were centrifuged, resuspended in 100 uL 1M sorbitol and plated on selective media lacking leucine and containing 2% galactose. The resulting yeast colonies were incubated at various temperatures ranging from 22 to 37 degrees Celsius for 7-10 days. I-CreI and meganucleases derived from it have maximal activity at or above 37 degrees Celsius. Screening was performed at a range of temperatures from 22 to 37 degrees in order to observe increases in activity at lower temperatures which are relevant to certain biological systems (eg. plant cells, plant cell cultures, etc). At that time the red/white sectoring phenotype, indicative of meganuclease activity was observed. Colonies with increased white sectoring over the parental meganuclease (indicating colonies expressing a meganuclease with increased meganuclease activity), also referred to as “hits” and sometimes completely white, were isolated for further analysis. […]

The next series concerns the target T2, MHP14+(08) (artificial).
T2 chain: T1 chain with S22C, R50K, F54I, D56L, Y66K, S258G, G308K
Description: cell_activity; maize; yeast 37 C: 4. Conditions: tags: SV40 NLS.

For a further series, the target named is T3, MHP14+(06) (artificial).
T3 chain: T1 chain with D56L, Y66K, I81K, K121G, K244E, S258G, F281Y, G308K, A316V, I319V
The series can be described thus: cell_activity; maize; yeast 37 C: 4. Conditions: tags: SV40 NLS.

Another series addresses T4, MHP14+(12) (artificial).
T4 chain: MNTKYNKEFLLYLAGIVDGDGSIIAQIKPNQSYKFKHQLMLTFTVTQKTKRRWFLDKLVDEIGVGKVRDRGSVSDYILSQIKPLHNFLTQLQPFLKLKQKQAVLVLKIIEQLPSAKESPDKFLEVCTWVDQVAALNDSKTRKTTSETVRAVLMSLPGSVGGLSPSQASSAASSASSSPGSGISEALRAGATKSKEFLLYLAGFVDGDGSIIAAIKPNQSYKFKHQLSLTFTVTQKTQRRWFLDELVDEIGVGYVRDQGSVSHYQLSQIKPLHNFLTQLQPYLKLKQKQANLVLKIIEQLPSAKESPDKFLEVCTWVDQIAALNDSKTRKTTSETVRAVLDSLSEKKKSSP
The series can be described thus: cell_activity; maize; yeast 37 C: 4. Conditions: tags: SV40 NLS.

The next series has as its target T5, MHP14+(14) (artificial).
T5 chain: T1 chain with Y66K
Description: cell_activity; maize; yeast 37 C: 4. Particulars: tags: SV40 NLS.

B1: MHP14 recognition site (dsDNA)
DNA 1: CAAACAGATTCACGTCAGATTT
DNA 2: AAATCTGACGTGAATCTGTTTG
For the molecule B1, the activity in the series with MHP14(14) was 4 score 0-4; in the series with MHP14+(08) it was 25 % target site mutation rate; with MHP14+(06), 7 % target site mutation rate; with MHP14+(12), 47 % target site mutation rate; with MHP14+(14) it was 39 % target site mutation rate.
